Assay results from article PMC10943277 (The Journal of Cell Biology, 2024).

Biological target: T1, Sly1 (wild-type) (S. cerevisiae, UniProt P22213 1-666)
T1 sequence: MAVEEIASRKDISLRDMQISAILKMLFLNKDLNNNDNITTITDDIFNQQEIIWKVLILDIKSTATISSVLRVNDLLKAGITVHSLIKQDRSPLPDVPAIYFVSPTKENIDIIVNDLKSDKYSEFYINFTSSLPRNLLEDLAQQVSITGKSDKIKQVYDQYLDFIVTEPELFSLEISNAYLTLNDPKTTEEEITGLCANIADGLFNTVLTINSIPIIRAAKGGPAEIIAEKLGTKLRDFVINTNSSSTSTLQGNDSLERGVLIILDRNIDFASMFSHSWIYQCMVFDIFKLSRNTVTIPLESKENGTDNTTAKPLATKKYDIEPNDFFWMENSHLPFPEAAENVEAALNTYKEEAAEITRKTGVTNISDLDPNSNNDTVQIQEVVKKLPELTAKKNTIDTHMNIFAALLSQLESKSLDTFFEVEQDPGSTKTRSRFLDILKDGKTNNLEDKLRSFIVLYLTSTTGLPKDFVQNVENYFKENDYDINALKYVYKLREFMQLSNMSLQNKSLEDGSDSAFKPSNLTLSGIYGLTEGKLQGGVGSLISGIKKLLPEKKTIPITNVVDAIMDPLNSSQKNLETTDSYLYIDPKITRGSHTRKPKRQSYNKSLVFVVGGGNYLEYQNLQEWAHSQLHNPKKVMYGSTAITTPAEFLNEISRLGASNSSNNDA
Test: pull-down

B1: GST-Sed5 cytoplasmic domain (domain or fragment, S. cerevisiae, UniProt Q01590 1-319, looked up)
chain: MNIKDRTSEFQQSVLSYKKRNKNFREQQRERLQEKESENFANNTTGNGKSVSEFQKKASGIAHEISSTAQLLSKLAVLAKRKPMFNDNPVEIAELSFLIKRKIYAIEQSLVQLSQLKKTDVNGNTSNQSSKQPSAVQHSKNVVNLLNTQMKNISGSFKDVLEERQRLEMANKDRWQKLTTDTGHAPADDQTQSNHAADLTTYNNSNPFMTSLLDESSEKNNNSSNQGELSFPQNDSQLMLMEEGQLSNNVYLQERNRAVETIESTIQEVGNLFQQLASMVQEQGEVIQRIDANVDDIDLNISGAQRELLKYFDRIKSNR
  binding result: binds
